{"source": "paper PMC10786891", "about": "“Massively parallel profiling of RNA-targeting CRISPR-Cas13d”", "data": [{"target": "T1, EsCas13d, nuclease-dead (Eubacterium siraeum, UniProt B0MS50, R295A;H300A;R849A;H854A)", "T1 sequence": "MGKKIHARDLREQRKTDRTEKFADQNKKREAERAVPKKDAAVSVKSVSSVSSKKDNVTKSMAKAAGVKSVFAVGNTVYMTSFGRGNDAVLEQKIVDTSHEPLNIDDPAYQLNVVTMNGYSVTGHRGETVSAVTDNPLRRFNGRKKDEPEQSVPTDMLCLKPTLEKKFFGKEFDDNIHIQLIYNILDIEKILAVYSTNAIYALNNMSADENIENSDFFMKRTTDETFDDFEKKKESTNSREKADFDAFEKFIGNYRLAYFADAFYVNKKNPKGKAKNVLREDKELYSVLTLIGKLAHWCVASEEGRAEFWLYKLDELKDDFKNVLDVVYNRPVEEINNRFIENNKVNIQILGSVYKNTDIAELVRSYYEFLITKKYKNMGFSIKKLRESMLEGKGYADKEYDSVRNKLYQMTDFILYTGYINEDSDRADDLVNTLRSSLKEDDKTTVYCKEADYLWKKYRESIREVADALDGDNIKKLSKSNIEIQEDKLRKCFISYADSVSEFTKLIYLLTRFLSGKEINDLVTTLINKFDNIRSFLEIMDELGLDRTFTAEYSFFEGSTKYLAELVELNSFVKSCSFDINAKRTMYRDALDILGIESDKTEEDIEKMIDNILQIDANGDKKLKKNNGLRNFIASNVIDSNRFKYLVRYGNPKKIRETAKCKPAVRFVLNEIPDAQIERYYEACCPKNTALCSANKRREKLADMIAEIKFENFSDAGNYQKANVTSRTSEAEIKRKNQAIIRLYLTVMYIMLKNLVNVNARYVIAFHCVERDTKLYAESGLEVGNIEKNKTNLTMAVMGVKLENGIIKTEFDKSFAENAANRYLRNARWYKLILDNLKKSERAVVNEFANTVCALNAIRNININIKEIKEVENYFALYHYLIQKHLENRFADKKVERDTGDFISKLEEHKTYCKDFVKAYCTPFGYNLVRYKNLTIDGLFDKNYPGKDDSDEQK", "assay": "crRNA (strand 1, pre-loaded); Mg2+; 40 mM Tris-HCl pH 7.5, 150 mM NaCl, 6 mM MgCl2, 1 mM DTT, 0.1% Tween-20, 0.2 mg/ml BSA; 25 C; 10 min per concentration, then washed", "conditions": "tags: His6-TwinStrep-SUMO cleaved; N-terminal SNAP kept (SNAP-Surface 488); label: 3' end held by stalled T7 RNA polymerase", "units": {"Kd": "nM"}, "values": [{"binder": "target 2 MT 5'PFS GGA 3'PFS CUG (mixed) RNA 1: CACCCGUGCAAAAUUGCAGGGGUCUAAAACCUUCUCCAAAUUGUUUCAUCCU RNA 2: GGGAAUGGAUCCACAUCUACGAAUUCGGAAGGAUGAAACAAUUUGGAGAAGCUGAGAUCGGAAGAGCACACGU", "Kd": "9.2 ± 0.8"}, {"binder": "target 2 MT 5'PFS GCC 3'PFS CGC (mixed) RNA 1: CACCCGUGCAAAAUUGCAGGGGUCUAAAACCUUCUCCAAAUUGUUUCAUCCU RNA 2: GGGAAUGGAUCCACAUCUACGAAUUCGCCAGGAUGAAACAAUUUGGAGAAGCGCAGAUCGGAAGAGCACACGU", "Kd": "11.4 ± 1.6"}, {"binder": "target 2 MT 5'PFS GGA 3'PFS CUC (mixed) RNA 1: CACCCGUGCAAAAUUGCAGGGGUCUAAAACCUUCUCCAAAUUGUUUCAUCCU RNA 2: GGGAAUGGAUCCACAUCUACGAAUUCGGAAGGAUGAAACAAUUUGGAGAAGCUCAGAUCGGAAGAGCACACGU", "Kd": "13.4 ± 1.5"}, {"binder": "target 2 MT 5'PFS GCC 3'PFS CGG (mixed) RNA 1: CACCCGUGCAAAAUUGCAGGGGUCUAAAACCUUCUCCAAAUUGUUUCAUCCU RNA 2: GGGAAUGGAUCCACAUCUACGAAUUCGCCAGGAUGAAACAAUUUGGAGAAGCGGAGAUCGGAAGAGCACACGU", "Kd": "13.5 ± 2.2"}, {"binder": "target 2 MT 5'PFS GGA 3'PFS CUA (mixed) RNA 1: CACCCGUGCAAAAUUGCAGGGGUCUAAAACCUUCUCCAAAUUGUUUCAUCCU RNA 2: GGGAAUGGAUCCACAUCUACGAAUUCGGAAGGAUGAAACAAUUUGGAGAAGCUAAGAUCGGAAGAGCACACGU", "Kd": "9.9 ± 1.3"}, {"binder": "target 2 MT 5'PFS GCC 3'PFS AGG (mixed) RNA 1: CACCCGUGCAAAAUUGCAGGGGUCUAAAACCUUCUCCAAAUUGUUUCAUCCU RNA 2: GGGAAUGGAUCCACAUCUACGAAUUCGCCAGGAUGAAACAAUUUGGAGAAGAGGAGAUCGGAAGAGCACACGU", "Kd": "16.4 ± 2.4"}, {"binder": "target 2 MT 5'PFS GGA 3'PFS CUU (mixed) RNA 1: CACCCGUGCAAAAUUGCAGGGGUCUAAAACCUUCUCCAAAUUGUUUCAUCCU RNA 2: GGGAAUGGAUCCACAUCUACGAAUUCGGAAGGAUGAAACAAUUUGGAGAAGCUUAGAUCGGAAGAGCACACGU", "Kd": "10.5 ± 0.8"}, {"binder": "target 2 MT 5'PFS GUA 3'PFS AAC (mixed) RNA 1: CACCCGUGCAAAAUUGCAGGGGUCUAAAACCUUCUCCAAAUUGUUUCAUCCU RNA 2: GGGAAUGGAUCCACAUCUACGAAUUCGUAAGGAUGAAACAAUUUGGAGAAGAACAGAUCGGAAGAGCACACGU", "Kd": "6.2 ± 0.5"}, {"binder": "target 1 A1G,G13A (mixed) RNA 1: CACCCGUGCAAAAAUGCAGGGGUCUAAAACUGAGCGGAUAACCUCUCUAUGG RNA 2: GGGAAUGGAUCCACAUCUACGAAUUCGUACCAUAGAGAAGUUAUCCGCUCGCCGAGAUCGGAAGAGCACACGU", "Kd": "6.2 ± 0.8"}, {"binder": "target 2 MT 5'PFS GCC 3'PFS AGC (mixed) RNA 1: CACCCGUGCAAAAUUGCAGGGGUCUAAAACCUUCUCCAAAUUGUUUCAUCCU RNA 2: GGGAAUGGAUCCACAUCUACGAAUUCGCCAGGAUGAAACAAUUUGGAGAAGAGCAGAUCGGAAGAGCACACGU", "Kd": "10.5 ± 1.2"}, {"binder": "target 2 MT 5'PFS CCC 3'PFS CCU (mixed) RNA 1: CACCCGUGCAAAAUUGCAGGGGUCUAAAACCUUCUCCAAAUUGUUUCAUCCU RNA 2: GGGAAUGGAUCCACAUCUACGAAUUCCCCAGGAUGAAACAAUUUGGAGAAGCCUAGAUCGGAAGAGCACACGU", "Kd": "7.6 ± 1.8"}, {"binder": "target 2 MT 5'PFS GCC 3'PFS AGA (mixed) RNA 1: CACCCGUGCAAAAUUGCAGGGGUCUAAAACCUUCUCCAAAUUGUUUCAUCCU RNA 2: GGGAAUGGAUCCACAUCUACGAAUUCGCCAGGAUGAAACAAUUUGGAGAAGAGAAGAUCGGAAGAGCACACGU", "Kd": "10.5 ± 1.8"}, {"binder": "target 2 MT 5'PFS UGA 3'PFS UCG (mixed) RNA 1: CACCCGUGCAAAAUUGCAGGGGUCUAAAACCUUCUCCAAAUUGUUUCAUCCU RNA 2: GGGAAUGGAUCCACAUCUACGAAUUCUGAAGGAUGAAACAAUUUGGAGAAGUCGAGAUCGGAAGAGCACACGU", "Kd": "13 ± 1.7"}, {"binder": "target 2 MT 5'PFS UGA 3'PFS UCA (mixed) RNA 1: CACCCGUGCAAAAUUGCAGGGGUCUAAAACCUUCUCCAAAUUGUUUCAUCCU RNA 2: GGGAAUGGAUCCACAUCUACGAAUUCUGAAGGAUGAAACAAUUUGGAGAAGUCAAGAUCGGAAGAGCACACGU", "Kd": "14 ± 6"}, {"binder": "target 2 MT 5'PFS UGA 3'PFS UCC (mixed) RNA 1: CACCCGUGCAAAAUUGCAGGGGUCUAAAACCUUCUCCAAAUUGUUUCAUCCU RNA 2: GGGAAUGGAUCCACAUCUACGAAUUCUGAAGGAUGAAACAAUUUGGAGAAGUCCAGAUCGGAAGAGCACACGU", "Kd": "~49"}, {"binder": "target 2 MT 5'PFS CGC 3'PFS CAG (mixed) RNA 1: CACCCGUGCAAAAUUGCAGGGGUCUAAAACCUUCUCCAAAUUGUUUCAUCCU RNA 2: GGGAAUGGAUCCACAUCUACGAAUUCCGCAGGAUGAAACAAUUUGGAGAAGCAGAGAUCGGAAGAGCACACGU", "Kd": "3.6 ± 0.6"}, {"binder": "target 2 MT 5'PFS UCG 3'PFS AGG (mixed) RNA 1: CACCCGUGCAAAAUUGCAGGGGUCUAAAACCUUCUCCAAAUUGUUUCAUCCU RNA 2: GGGAAUGGAUCCACAUCUACGAAUUCUCGAGGAUGAAACAAUUUGGAGAAGAGGAGAUCGGAAGAGCACACGU", "Kd": "35 ± 9"}, {"binder": "target 2 MT 5'PFS GGU 3'PFS UCU (mixed) RNA 1: CACCCGUGCAAAAUUGCAGGGGUCUAAAACCUUCUCCAAAUUGUUUCAUCCU RNA 2: GGGAAUGGAUCCACAUCUACGAAUUCGGUAGGAUGAAACAAUUUGGAGAAGUCUAGAUCGGAAGAGCACACGU", "Kd": "38 ± 7"}, {"binder": "target 2 MT 5'PFS CGC 3'PFS CAC (mixed) RNA 1: CACCCGUGCAAAAUUGCAGGGGUCUAAAACCUUCUCCAAAUUGUUUCAUCCU RNA 2: GGGAAUGGAUCCACAUCUACGAAUUCCGCAGGAUGAAACAAUUUGGAGAAGCACAGAUCGGAAGAGCACACGU", "Kd": "5.1 ± 0.5"}, {"binder": "target 1 G13A (mixed) RNA 1: CACCCGUGCAAAAAUGCAGGGGUCUAAAACUGAGCGGAUAACCUCUCUAUGG RNA 2: GGGAAUGGAUCCACAUCUACGAAUUCGUACCAUAGAGAAGUUAUCCGCUCACCGAGAUCGGAAGAGCACACGU", "Kd": "4.9 ± 0.4"}, {"binder": "target 2 MT 5'PFS CGC 3'PFS CAA (mixed) RNA 1: CACCCGUGCAAAAUUGCAGGGGUCUAAAACCUUCUCCAAAUUGUUUCAUCCU RNA 2: GGGAAUGGAUCCACAUCUACGAAUUCCGCAGGAUGAAACAAUUUGGAGAAGCAAAGAUCGGAAGAGCACACGU", "Kd": "7.4 ± 2.5"}, {"binder": "target 2 MT 5'PFS UCG 3'PFS AGA (mixed) RNA 1: CACCCGUGCAAAAUUGCAGGGGUCUAAAACCUUCUCCAAAUUGUUUCAUCCU RNA 2: GGGAAUGGAUCCACAUCUACGAAUUCUCGAGGAUGAAACAAUUUGGAGAAGAGAAGAUCGGAAGAGCACACGU", "Kd": "17.9 ± 2.3"}, {"binder": "target 2 MT 5'PFS GAU 3'PFS CAU (mixed) RNA 1: CACCCGUGCAAAAUUGCAGGGGUCUAAAACCUUCUCCAAAUUGUUUCAUCCU RNA 2: GGGAAUGGAUCCACAUCUACGAAUUCGAUAGGAUGAAACAAUUUGGAGAAGCAUAGAUCGGAAGAGCACACGU", "Kd": "9 ± 1.4"}, {"binder": "target 2 MT 5'PFS AAC 3'PFS AUC (mixed) RNA 1: CACCCGUGCAAAAUUGCAGGGGUCUAAAACCUUCUCCAAAUUGUUUCAUCCU RNA 2: GGGAAUGGAUCCACAUCUACGAAUUCAACAGGAUGAAACAAUUUGGAGAAGAUCAGAUCGGAAGAGCACACGU", "Kd": "3.8 ± 0.9"}]}]}
